Results reported in US20110165066A1 (AbbVie / Abbott, published 2011).

T1: mouse IL-13 (mouse, UniProt P20109 26-131, limits assumed)
T1 construct: also called mIL-13; murine IL-13
T1 sequence (looked up): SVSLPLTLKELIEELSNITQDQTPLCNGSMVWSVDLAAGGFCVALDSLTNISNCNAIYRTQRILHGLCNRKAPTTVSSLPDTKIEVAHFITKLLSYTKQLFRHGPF


Assays:
[1] = biological target: T2, human IL-13 wild type (human, UniProt P35225 35-146); test: SPR (Biacore), mAb captured, IL-13 as analyte
T2 construct: also called h IL-13; h IL-13 wt
T2 sequence (P35225 other isoform, or with tags, fused parts or gaps limits assumed): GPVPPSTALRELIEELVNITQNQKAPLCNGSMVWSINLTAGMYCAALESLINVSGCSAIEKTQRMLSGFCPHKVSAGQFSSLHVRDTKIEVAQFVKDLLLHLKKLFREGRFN
Procedure: (§1) The BIACORE assay (Biacore, Inc, Piscataway, N.J.) determines the affinity of antibodies with kinetic measurements of on-, off-rate constants. […] All chemicals were obtained from Biacore® AB (Uppsala, Sweden) or otherwise from a different source as described in the text. Approximately 5000 RU of goat anti-mouse IgG, (Fcγ), fragment specific polyclonal antibody (Pierce Biotechnology Inc, Rockford, Ill.) diluted in 10 mM sodium acetate (pH 4.5) was directly immobilized across a CM5 research grade biosensor chip using a standard amine coupling kit according to manufacturer's instructions and procedures at 25 μg/ml. Unreacted moieties on the biosensor surface were blocked with ethanolamine. Modified carboxymethyl dextran surface in flowcell 2 and 4 was used as a reaction surface. Unmodified carboxymethyl dextran without goat anti-mouse IgG in flow cell 1 and 3 was used as the reference surface. For kinetic analysis, rate equations derived from the 1:1 Langmuir binding model were fitted simultaneously to association and dissociation phases of all eight injections (using global fit analysis) with the use of Biaevaluation 4.0.1 software. Purified antibodies were diluted in HEPES-buffered saline for capture across goat anti-mouse IgG specific reaction surfaces. Mouse antibodies to be captured as a ligand (25 μg/ml) were injected over reaction matrices at a flow rate of 5 μl/min. The association and dissociation rate constants, kₒₙ (unit M⁻¹s⁻¹) and koff (unit s⁻¹) were determined under a continuous flow rate of 25 μl/min Rate constants were derived by making kinetic binding measurements at ten different antigen concentrations ranging from 10-200 nM. […] Binding is recorded as a function of time and kinetic rate constants are calculated.

[2] = biological target: T3, human IL-13 variant (R130Q) (human, UniProt P35225 35-146); test: SPR (Biacore), mAb captured, IL-13 as analyte
T3 construct: called R110Q in the assay descriptions (mature numbering); also called h IL-13v; hIL-13v
T3 sequence (P35225 35-146 limits assumed, stated change not applied): as the sequence (P35225 other isoform, or with tags, fused parts or gaps limits assumed) above, with R110Q counted along it
Procedure: as §1

[3] = biological target: T2, human IL-13 wild type; test: cell-based or functional assay
[4] = biological target: T3, human IL-13 variant (R130Q); test: cell-based or functional assay
[5] = biological target: cynomolgus IL-13 (cynomolgus, UniProt Q0PW92 21-132); test: cell-based or functional assay
Chain of cynomolgus IL-13 (Q0PW92 entry or part of it): as the sequence (P35225 other isoform, or with tags, fused parts or gaps limits assumed) above, with G1S, R10K, M42V, S67N, H83R, L100V, R110Q counted along it

[6] = biological target: T1, mouse IL-13; test: indirect ELISA, captured mAb, biotinylated mouse IL-13
Procedure: Murine anti-human IL-13 mAbs were prepared at various concentrations ranging from 0.1 to 100 ng/ml in PBS containing 0.1% BSA; 50 ul of each antibody dilution was added to the coated ELISA plate and incubated for 1 hour at room temperature. Wells were washed 3 times with PBS containing 0.05% Tween-20. […] Wells were washed 3 times with PBS containing 0.05% Tween-20. Streptavidin HRP (Pierce #21126, Rockland, Ill.) was diluted 1:20000 in PBS containing 0.1% BSA; […] was added and the plates incubated for 1 hour at room temperature. Plates were washed 3 times with PBS containing 0.05% Tween-20. Fifty microliters of TMB solution (Sigma # T0440, St. Louis, Mo.) was added to each well and incubated for 10 minutes at room temperature. The reaction was stopped by addition of 1N sulphuric acid. Plates were read spectrophotmetrically at a wavelength of 450 nm.

| Binder | Kd [1] [pM] | koff [1] [s⁻¹] | kon [1] [M⁻¹ s⁻¹] | Kd [2] [pM] | koff [2] [s⁻¹] | kon [2] [M⁻¹ s⁻¹] | Average IC50, IL-13-induced TARC production by A-549 cells [3] [pM] | Average IC50, IL-13-induced TARC production by A-549 cells [4] [pM] | Average IC50, IL-13-induced TARC production by A-549 cells [5] [pM] | binding result [6] |
| --- | --- | --- | --- | --- | --- | --- | --- | --- | --- | --- |
| 1B6 (antibody, V domains shown) VH: QVQLKESGPGLVAPSQSLSITCTVSGFSLTGYGVNWVRQPPGKGLEWLGMIWGDERIDYNSALKSRLSITKDNSKSQVFLKMNSLQTDDTGRYFCARDGYFPYAMDYWGQGTSVTVSS VL: NIVLTQSPASLAVSLGQRATISCRASETVDSYGKSYLHWYQQKPGQPPKLLIYLASNLESGVPARFSGSGSRTDFTLIIDPVEADDAATYYCQQNNEGPRTFGGGTKLEIKR | 545 | 0.000518 | 951000 | 210 | 0.000222 | 1.06e+06 | 840 | 240 | 521 | no binding (tested: 0.1 to 100 ng/ml) |
| 6C8 (antibody, V domains shown) VH: QVQLKESGPGLVAPSQSLSITCTVSEFSLTGSSVNWVRQPPGKGLEWLGMIWGDGRIDYNSALKSRLSISKDNSKSQVFLKMNSLQTDDTARYYCARDGYYPYAMNYWGQGTSVTVSS VL: NIVLTQSPASLAVSLGQRATISCRASESVDSYGNSFMHWYQQKPGQPPKLLIYLASNLESGVPARFSGSGSRADFTLTIDPVEADDAATYYCQQNNENPRTFGGGTKLEIKR | 484 | 0.000702 | 1.45e+06 | 403 | 0.000394 | 978000 | 720 | 340 | 161 | no binding (tested: 0.1 to 100 ng/ml) |
| 3E5 (antibody, V domains shown) VH: QVQLKESGPGLVAPSQSLSITCTVSGFSLTGSSINWVRQPPGKGLEWLGMIWGDGRIDYNSVLKSRLSISKDSSKSQVFLKMNSLQADDTARYYCARDGYYPYAMVYWGQGTSVTVSS VL: NIVLTQSPASLAVSLGQRATIFCRASESVDSYGNSFMHWYQQKSGQPPKLLIYLASNLESGVPARFSGSGSRTDFTLTIDPVEADDAATFYCQQNNENPRTFGGGTKLEIKR | 457 | 0.000658 | 1.44e+06 | 253 | 0.000468 | 1.85e+06 | 130 | 300 | 161 | no binding (tested: 0.1 to 100 ng/ml) |
| 5F1 (antibody, V domains shown) VH: QVQLQQSGAELARPGTSVKLSCKASGYTFTTYGISWVKQRTGQGLEWIGEIYPGSYNTYYNEKFRGKATLTADKSSSTAYMQLSSLTSEDSAVYFCSRWRTSYFSDYGYFDYWGQGTTLTVSS VL: DVVMTQTPLSLPVSLGDQASISCRSSQSLVHSHGNTYLHWYLQKPGQSPKLLIYTVSNRFSGVPDRFSGSGSGTDFTLKISRVEAEDLGVYFCSQSTHVPYTFGGGTKLEIKR | 28.9 | 2.24e-05 | 774000 | 31.4 | 1.57e-05 | 502000 | 97 | 90 | 1880 | no binding (tested: 0.1 to 100 ng/ml) |
| 29G5 (antibody, V domains shown) VH: QVTLKESGPGILQPSQTLSLTCSFSGFSLSTSDMGVDWIRQPSGKDLEWLAHIWWDDVKRYNPALKSRLTISKDTSSSQVFLMLASVDTADTATYYCARIVSSGYIYYALDYWGQGTSVTVSS VL: DIQMTQTASSLSASLGDRVTISCRASQDIRNYLNWYQRKPDGTVKLLIYYTSRLHSGVPSRFSGSGSGTDYSLTISNLEQEDIATYFCQQGNTLPLTFGGGTKLEIKR | 204 | 0.000175 | 859000 | 329 | 0.000104 | 316000 | 290 | 200 | 4390 | no binding (tested: 0.1 to 100 ng/ml) |

Continued, values first:

| Kd [1] [pM] | koff [1] [s⁻¹] | kon [1] [M⁻¹ s⁻¹] | Kd [2] [pM] | koff [2] [s⁻¹] | kon [2] [M⁻¹ s⁻¹] | Average IC50, IL-13-induced TARC production by A-549 cells [3] [pM] | Average IC50, IL-13-induced TARC production by A-549 cells [4] [pM] | Average IC50, IL-13-induced TARC production by A-549 cells [5] [pM] | binding result [6] | Binder |
| --- | --- | --- | --- | --- | --- | --- | --- | --- | --- | --- |
| 523 | 0.000607 | 1.16e+06 | 976 | 0.00096 | 983000 | – | 480 | 395 | no binding (tested: 0.1 to 100 ng/ml) | 8B6 (antibody, V domains shown) VH: QVQLKESGPGLVAPSQSLSITCTVSGFSLTGHNINWVRQPPGKGLEWLGMIWGDGNTDFNSALKSRLSISKDNSKSQVFLKLNSLQTDDTARYYCARDGYYPYAIKFWGQGTSVTVSS VL: HIVLTQSPASLAVSLGQRATISCRASETVDSYGSSFLHWYQQKPGQPPKLLIYLASKLESGVPARFSGSGSRTDFTLTIDPVEADDAATYYCQQNNEGPRTFGGGSKLEIKR |
| 8.77 | 5.49e-06 | 626000 | 130 | 2.05e-05 | 157000 | 76 | 48 | 612 | no binding (tested: 0.1 to 100 ng/ml) | 5G1 (antibody, V domains shown) VH: QVQLQQSGAELARPGTSVKLSCKASGYTFTTYGVSWVKQRTGQGLEWIGEIYPGNYNTYYNEKFRGKATLTADKSSSTAYMQLSSLTSEDSAVYFCSRWRTSYFSDYGYFDYWGQGTTLTVSS VL: DVVMTQTPLSLPVSLGDQASISCRSSQSLVHSHGNTYLHWYLQKPGQSPKLLIYTVSNRFSGVPDRFSGSGSGTDFTLKISRVEAEDLGVYFCSQSTHVPYTFGGGTKLEIKR |
| 89 | – | – | 157 | – | – | – | 270 | – | no binding (tested: 0.1 to 100 ng/ml) | 4A8 (antibody, V domains shown) VH: EVQLQQSGAEFVRPGALVKLSCKASGFNIKDYYMYWVKQRPEQGLEWIGRIDPENGNTIYDPKFQGKASITGDTSSNTAYLQLSSLTSEDTAVYYCARYAYYGPFDYWGQGTTLTVSS VL: QAVVTQESALTTSPGETVTLTCRSSIGTVTTNNYANWVQEKPDHLFTGLIGSTNNRAPGVPARFSGSLIGDKAALTITGAQTEDEAIYFCALWYSNHWVFGGGTKLTVLG |
| 63.9 | 0.000149 | 2.33e+06 | 124 | 9.59e-05 | 770000 | 150 | 100 | 847 | no binding (tested: 0.1 to 100 ng/ml) | 33C3 (antibody, V domains shown) VH: QVTLKESGPGILQPSQTLSLTCSFSGFSLSTSDLGVGWIRQPSGKGLEWLAHIWWDDVKRYNPALKSRLTISKDTSSSQVFLMIASVDTADTATYYCARIGSSGYIYYEMDYWGQGTSVTVSS VL: DIQMTQTTSSLSASLGDRVTITCRASQDIRNYLNWYQQKPDGTVKLLIYYTSRLHSGVPSRFSGSGSGTDYSLTISNLDQEDIATYFCQQGNTLPLTFGGGTRLEIKR |
